In this assay the target is Fab with lambda light chain (Cλ). The assay is described as follows: ELISA; reference is the Fab with kappa light chain. On the technique in general: An ELISA detects its analyte on a solid surface through an enzyme-linked reagent.

Turning to “wild-type Protein-G (C2 domain / Fab binding domain)”, the EC50 ratio, Cλ Fab over CK Fab is 7 fold.

Source of the values: patent US20180044385A1.
